Experimental findings from patent publication US20250092108A1 (Xencor, published 2025) are described below.

Changes are numbered by the printed parent chain.

For the assay, the target named is T1, IL-2 receptors (high-affinity IL-2Rαβγ or intermediate-affinity IL-2Rβγ) on PBMC lymphocytes (UniProt P01589 22-272; P14784 27-551; P31785 23-369, limits assumed).
T1 sequence (looked up) 1: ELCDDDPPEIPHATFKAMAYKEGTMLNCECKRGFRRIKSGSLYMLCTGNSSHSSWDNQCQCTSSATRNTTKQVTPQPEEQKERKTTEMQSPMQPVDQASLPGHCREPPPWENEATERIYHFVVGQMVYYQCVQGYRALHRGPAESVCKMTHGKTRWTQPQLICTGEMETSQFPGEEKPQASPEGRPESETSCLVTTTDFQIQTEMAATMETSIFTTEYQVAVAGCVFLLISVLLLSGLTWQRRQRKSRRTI
T1 sequence (looked up) 2: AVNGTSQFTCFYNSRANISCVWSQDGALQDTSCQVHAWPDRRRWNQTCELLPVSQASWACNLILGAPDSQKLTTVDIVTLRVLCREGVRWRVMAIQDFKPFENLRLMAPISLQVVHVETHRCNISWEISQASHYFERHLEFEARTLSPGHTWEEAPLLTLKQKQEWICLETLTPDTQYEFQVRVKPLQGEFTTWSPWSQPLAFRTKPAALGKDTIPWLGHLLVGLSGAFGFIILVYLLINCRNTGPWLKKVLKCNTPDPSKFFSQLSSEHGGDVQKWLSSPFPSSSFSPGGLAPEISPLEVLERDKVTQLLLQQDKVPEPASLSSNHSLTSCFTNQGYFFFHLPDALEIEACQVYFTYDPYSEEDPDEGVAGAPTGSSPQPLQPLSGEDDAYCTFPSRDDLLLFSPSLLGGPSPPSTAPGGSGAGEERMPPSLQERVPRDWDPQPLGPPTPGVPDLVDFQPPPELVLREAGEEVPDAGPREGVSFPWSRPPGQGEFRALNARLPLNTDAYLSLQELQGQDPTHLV
T1 sequence (looked up) 3: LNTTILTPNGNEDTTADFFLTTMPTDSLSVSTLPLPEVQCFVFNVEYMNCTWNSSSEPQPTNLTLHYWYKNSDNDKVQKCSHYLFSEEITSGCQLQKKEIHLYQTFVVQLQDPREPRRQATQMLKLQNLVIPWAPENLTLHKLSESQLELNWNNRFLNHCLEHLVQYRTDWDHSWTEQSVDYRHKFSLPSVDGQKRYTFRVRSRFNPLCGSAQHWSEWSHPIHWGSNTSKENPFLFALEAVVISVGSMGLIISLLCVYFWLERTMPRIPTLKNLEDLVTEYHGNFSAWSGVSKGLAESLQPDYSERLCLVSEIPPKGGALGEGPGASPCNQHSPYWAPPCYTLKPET
As to the kind of experiment: cell-based or functional assay.

B1: XENP26105 (Fc fusion)
chain 1: EPKSSDKTHTCPPCPAPPVAGPSVFLFPPKPKDTLMISRTPEVTCVVVDVKHEDPEVKFNWYVDGVEVHNAKTKPREEEYNSTYRVVSVLTVLHQDWLNGKEYKCKVSNKALPAPIEKTISKAKGQPREPQVYTLPPSREEMTKNQVSLTCDVSGFYPSDIAVEWESDGQPENNYKTTPPVLDSDGSFFLYSKLTVDKSRWEQGDVFSCSVMHEALHNHYTQKSLSLSPGK
chain 2: APASSSTKKTQLQLEHLLLNLQMILNGINNYKNPKLRRMLTFKFYMPKKATELKHLQCLEEELKPLEEVLNLAQSKNFHLRPRDLISNINVIVLELKGSETTFMCEYADETATIVEFLNRWITFSQSIISTLTEPKSSDKTHTCPPCPAPPVAGPSVFLFPPKPKDTLMISRTPEVTCVVVDVKHEDPEVKFNWYVDGVEVHNAKTKPREEQYNSTYRVVSVLTVLHQDWLNGKEYKCKVSNKALPAPIEKTISKAKGQPREPQVYTLPPSREQMTKNQVKLTCLVKGFYPSDIAVEWESNGQPENNYKTTPPVLDSDGSFFLYSKLTVDKSRWQQGNVFSCSVMHEALHNHYTQKSLSLSPGK
Turning to B1, the “EC50, induction of STAT5 phosphorylation (in vitro potency)” value turned out to be 1 nM.

B2: XENP26109 (Fc fusion)
chain 1: B1 chain 1
chain 2: B1 chain 2 with R37T, N71K
With B2, the “EC50, induction of STAT5 phosphorylation (in vitro potency)” value worked out at 5 nM.
